Assay results published in article PMC11868391, “The p3 peptides (Aβ_(17-40/42)) rapidly form amyloid fibrils that cross-seed with full-length Aβ” (Nature Communications, 2025).

B1: p3_(40) Peptide Aβ_(17-40) (peptide)
peptide: LVFFAEDVGSNKGAIIGLMVGGVV
notes: numbers count on: the Aβ peptide; Used as SEC-purified monomer, as lag-phase oligomer preparation and as fibril seeds; source: synthetic peptide, bought: EZBiolab Inc; solubilized at pH 10, monomer isolated by SEC
B2: p3_(42) Peptide Aβ_(17-42) (peptide)
peptide: LVFFAEDVGSNKGAIIGLMVGGVVIA
notes: as for B1

Columns and labels:
Full-length Aβ40 = assay: cell-based or functional assay
Full-length Aβ42 = assay: cell-based or functional assay

Binder	t50 of ThT fibril growth of Aβ40 monomer with p3_(40) fibril seeds (10% w/w), as a percentage relative to self-seeding (Full-length Aβ40)	t50 of ThT fibril growth of Aβ42 monomer with p3_(42) fibril seeds (10% w/w), as a percentage relative to self-seeding (Full-length Aβ42)
B1	70 % relative to self-seeding t50	
B2		> 70 % relative to self-seeding t50
